We go through two molecules from patent US20050226848, “Transcriptional regulation of gene expression by small double-stranded modulatory RNA” (published 2005).

In the data set the target is Bovine serum albumin (Bos taurus, UniProt P02769 P02769:25-607). As to the kind of experiment: EMSA; BSA control. As for the experimental part:
To compare the affinity between NRSE dsDNA and NRSE dsRNA to NRSF/REST protein, an electrophoretic mobility shift assay (EMSA) was performed. NRSF/REST with cMyc-tag was expressed in 293T cells and immunoprecipitated with anti-cMyc antiboby. After purification, the protein was incubated with either NRSE dsDNAs or dsRNAs. A range of NRSF/REST protein concentrations was tested; the highest one tested produced a shift in dsDNA migration, whereas a 16-fold lower concentration of NRSF/REST protein was enough to produce a shift in dsRNA (FIG. 6C). […] Binding of NRSF/REST to the sequence of the MCS control dsRNAs or dsDNAs was not observed. […] This highly specific binding between NRSE dsRNA and NRSF/REST protein may contribute to a functional switch of the NRSF/REST machinery from transcriptional repressor to activator.

Chain of Bovine serum albumin (P02769 25-607, one chain of several): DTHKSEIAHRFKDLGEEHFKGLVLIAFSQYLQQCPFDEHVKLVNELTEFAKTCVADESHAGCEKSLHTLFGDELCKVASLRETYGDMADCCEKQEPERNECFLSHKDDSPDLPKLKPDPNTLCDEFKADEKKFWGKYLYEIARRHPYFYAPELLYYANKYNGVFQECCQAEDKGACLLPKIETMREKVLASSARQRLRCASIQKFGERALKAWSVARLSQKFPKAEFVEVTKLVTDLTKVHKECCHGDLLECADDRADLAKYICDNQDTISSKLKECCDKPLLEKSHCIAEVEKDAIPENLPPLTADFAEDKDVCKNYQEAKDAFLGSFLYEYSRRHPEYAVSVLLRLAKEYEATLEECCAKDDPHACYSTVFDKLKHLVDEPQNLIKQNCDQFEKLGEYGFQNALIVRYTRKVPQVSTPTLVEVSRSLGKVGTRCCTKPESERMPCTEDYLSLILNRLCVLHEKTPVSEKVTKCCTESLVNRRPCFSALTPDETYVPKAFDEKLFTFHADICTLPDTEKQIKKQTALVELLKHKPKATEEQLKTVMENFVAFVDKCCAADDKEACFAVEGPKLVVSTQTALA

B1: NRSE/RE1 dsDNA (dsDNA)
DNA 1: TTCAGCACCACGGACAGCGCC
DNA 2: GGCGCTGTCCGTGGTGCTGAA
Regarding B1, the binding result is given as “no binding”.

B2: NRSE dsRNA (dsRNA)
RNA 1: UUCAGCACCACGGACAGCGCC
RNA 2: GGCGCUGUCCGUGGUGCUGAA
With B2, the binding result is on record as “no binding”.
